In patent publication US6492137B1, “Response element compositions and assays employing same” (The Salk Institute for Biological Studies, priority 1989, dated 2002):

Target: T1, Retinoic acid receptor alpha (RARα), in CV-1 cells (Homo sapiens, UniProt P10276 P10276:1-462)
T1 sequence: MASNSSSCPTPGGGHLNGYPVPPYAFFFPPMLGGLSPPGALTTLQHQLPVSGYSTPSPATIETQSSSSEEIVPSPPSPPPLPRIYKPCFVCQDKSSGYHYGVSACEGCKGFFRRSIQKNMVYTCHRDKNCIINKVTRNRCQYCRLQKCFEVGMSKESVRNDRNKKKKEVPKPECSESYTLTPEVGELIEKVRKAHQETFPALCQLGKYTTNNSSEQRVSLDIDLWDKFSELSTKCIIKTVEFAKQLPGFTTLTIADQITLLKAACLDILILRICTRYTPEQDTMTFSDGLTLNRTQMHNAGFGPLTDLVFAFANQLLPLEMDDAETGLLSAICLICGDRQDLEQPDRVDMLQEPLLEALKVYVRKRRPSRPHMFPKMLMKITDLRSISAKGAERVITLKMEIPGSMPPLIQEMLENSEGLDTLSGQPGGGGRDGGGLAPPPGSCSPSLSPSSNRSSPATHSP
Assay: cell_activity; RA 1 µM, CV-1
Settings: tags: RSV or pRS expression vector; label: 32P; 5'-agct overhangs
Description: For cotransfection assays, a monkey kidney cell line CV-1 was kept in Dulbecco's modified Eagle's medium (DMEM) supplemented with 10% charcoal-resin double split calf bovine serum. Transfections were performed via calcium-phosphate precipitation method as described by Umesono, et al. in Cell 57: 1139–1146 (1989), with 0.5 μg of a pRS receptor expression plasmid, 1.0 μg of a reporter CAT plasmid, 5 μg of pRAS-βGAL [Umesono, et al., Cell 57: 1139–1146 (1989)] as an internal control, and 8.5 μg of carrier plasmid pUC19. The cells were transfected for 8 hours; after washing the DNA precipitates, the cells were then incubated for an additional 36 hours with or without the ligand (T_3, 100 nM; RA, 1 μM; 1,25-(OH)_2 vitamin D_3, 100 nM). Cell extracts were prepared for βGAL and CAT assays, as described by Umesono, et al., supra. Transfection of F9 teratocarcinoma cells was carried out employing a similar method except the cells were incubated for 12 hours in the presence of the DNA precipitates, and the RA was added at 1 μM for another 24 hours before harvesting the cells. 2, 5, and 4 μg of the reporter, pRAS-βGAL, and pUC19 were used, respectively.
The above strategies were used to test both in vivo transactivation and in vitro DNA-binding of these artificial HREs for TRβ, RARα, and VDR. […]

B1: DR-5 (dsDNA)
DNA 1: AGCTTCAGGTCACCAGGAGGTCAGAGAGCT
DNA 2: AGCTCTCTGACCTCCTGGTGACCTGAAGCT
activity: 9 fold induction
